Patent US8722622B2, “FGF21 conjugates and anti-diabetic uses thereof” (COVX Technologies Ireland, Limited, priority 2010, dated 2014)
Where two headings read alike, the source gives them in different places.

Test system: Glut1 mRNA expression in differentiated 3T3-L1 adipocytes
Test: Glut1 Taqman assay
Type: cell-based
Procedure: Differentiated 3T3-L1 adipocytes were used to measure the Glut1 mRNA expression by qPCR method. Overnight serum starved day 10-14 differentiated 3T3-L1 adipocytes were treated with compounds for 6 hrs. Total RNA was extracted from these cells, and Glut1 and GAPDH mRNA expression was measured using a Quantitect Probe RT-PCR kit and running a quantitative real time PCR reaction in a Taqman machine (Applied Biosystems®). The bioactivity of the compounds was determined by a fold change in Glut1 mRNA levels normalized by the GAPDH mRNA levels from each sample. EC50 values as measurements of the potency of the compounds were obtained from the dose response curves in the assay.
3T3-L1 adipocytes were seeded at day 8 in 24-well tissue culture plates (Falcon®, Cat#353047), and incubated in DMEM complete medium (10% FBS, 2 mM L-glutamine, 1% P/S) at 37° C., 5% CO2. […] The medium was aspirated, and then RNA extracted from the cells using the RNeasy mini Kit according to the manufacturer's instructions. RNA was measured at A260 nm using the Spectramax® Plus spectrophotometer.

B1: FGF21ΔH: FGF21 with H1 absent (ΔH1), L146, SEQ ID NO:2; control protein (protein, listed as Homo sapiens)
chain: PIPDSSPLLQFGGQVRQRYLYTDDAQQTEAHLEIREDGTVGGAADQSPESLLQLKALKPGVIQILGVKTSRFLCQRPDGALYGSLHFDPEACSFRELLLEDGYNVYQSEAHGLPLHLPGNKSPHRDPAPRGPARFLPLPGLPPAPLEPPGILAPQPPDVGSSDPLSMVGPSQGRSPSYAS
EC50 (3T3-L1 adipocytes, 6 hrs, Taqman quantitative real-time PCR, read-out: Glut1 RNA expression EC50): 3.39 nM
Glut1 induction in 3T3-L1 adipocytes (6 hrs): dose-dependent Glut1 induction
EC50 (unconjugated protein, n in brackets, read-out: Glut1 Taqman unconjugated Protein EC50): 2.3 nM
